As usually defined, the IC50 is the midpoint of a concentration-inhibition curve. In general, Km refers to the concentration of substrate that gives half-maximal velocity. As usually defined, the kcat is the maximal rate divided by the concentration of active sites.

This is an account of results in US20050013808A1, “Nitroreductase enzymes” (priority 2001, published 2005).

For one data set, the system named is HeLa cells. Briefly: CB1954 sensitisation of HeLa cells after adenoviral NTR expression (MTS viability). Type of data set: cell-based, human. The settings on record: range of MOIs, 0-50 μM CB1954, 5 hour exposure, MTS assay. As for the experimental part: Sensitisation of HeLa cells to CB1954 was assayed using the following protocol. Cells were infected with NTR-expressing viruses in suspension (2 hours) at a range of MOIs prior to plating into microtitre plates (10^4 cells/well). After a 24 hour expression period, CB1954 was applied at a range of concentrations (0-50 μM) and after a 5 hour exposure to the prodrug, cell viability was assessed using the Promega MTS cell substrate killing assay (2-3 hour incubation before plate reading at OD450 nm). […] Adenovirus titreing by plaque formation on helper cells is however an error-prone process. To correct for this, experiments were performed with multiple independent titred preparations of each virus.
The titres of these mixes were assumed to be the means of the respective experimentally determined titres. For western blot analysis of NTR expression for normalisation purposes, whole cell extracts were resolved by SDS-PAGE on an 11% separation gel and blotted onto a nitrocellulose membrane. NTR was detected using a sheep anti-NTR serum (1:1000 diluted), donkey anti-sheep IgG labelled with HRP (horseradish peroxidase) and SuperSignal West Pico Chemiluminescence substrate (Pierce), analysed with an Alpha Innotech Imager Model #2.3.1. The relative loading of each well was determined by Coomassie blue staining of the gel post transfer.
Background: Tetrazolium dyes change colour on reduction, which living cells bring about.

Data set [1] relates to UT5600 cells (NTR−) lysogens. Briefly: Replica-plate screening of mutant NTR-expressing lysogens on increasing CB1954 (growth score). The settings on record: for Score: growth of lysogens on agar with kanamycin, IPTG and 0-400 μM CB1954, wild type = 4, higher = more sensitive. Further details: key to Score: 0: Good growth on all concentrations of CB 1954 = vector; Good growth on 100 and 200, faint on 300, ring of growth on 400 μM; Good growth on 100 and 200, ring growth on 300, none or very faint on 400 μM; Good growth on 100, faint to good on 200, none or very faint on 300 and 400 μM; 4: Good growth on 100 μM, none to ring growth on 200 μM = wild type; Good growth on 50 μM, ring on 100 μM, none on 200, 300 or 400 μM; 6: Faint growth on 50 μM, ring on 100 μM; 7: Good growth on 50 μM, none on 100 μM; 8: Ring growth on 50 μM, none on 100 μM; 9: None or very faint growth on 50 μM, none on 100 μM; 10: None or ring growth on 35 μM. It is filed as cell-based, E. coli. The method, then:
The ligation mix was packaged (Stratagene) into lambda bacteriophage particles that were used to infect UT5600 cells (NTR ^−). As a control wild type NTR was also cloned into this vector (JG16C2). Kanamycin resistant lysogens were selected on agar plates ([…] kanamycin) then individually grown overnight in a well of a 96-well plate in LB+Kanamycin. The clones were replica plated on to a series of plates containing Tris-buffered (50 mM, pH 7.5) LB agar with kanamycin, IPTG (0.1 mM) and CB1954 at a concentration of 0, 25, 35, 50, 100, 200, 300 or 400 μM (see FIG. 3). […]

The subject of data set [2] is UT5600 cells (NTR−) lysogens. Briefly: Survival curve (colony count) IC50 of CB1954 in NTR-expressing lysogens. Type of data set: cell-based, E. coli. The settings on record: concentration of CB1954 giving 50% reduction in colony number after 36h growth; lysogen expressing the named NTR. The method, then:
To quantify the improvement in NTR activity in the clones in a less subjective way, a few clones were selected for further study by determining their survival curves. The lysogens were grown overnight in LB +kanamycin and diluted to approximately 1 cell per μl based on the OD. In duplicate, 100 μl diluted cells were plated into Tris-buffered LB plates containing kanamycin, IPTG and 0-400 μM CB1954. After 36h growth the number of colonies on each plate were counted and expressed as a percentage of the number present on the plates with no CB1954. Survival curves showing % survival versus concentration of CB 1954 were plotted (see examples in FIG. 7) and the IC50 determined as the concentration of CB 1954 which kills gives a 50% reduction in colony number (Table 3 and FIG. 8). A few clones containing mutations resulting in an enhanced sensitivity to CB 1954 were selected for further study.

A short description of data set [3]: Steady state kinetics of purified NTR, variable substrate CB1954. Type of data set: biochemical. The following applies: for kinetic parameters compared with wild type: second substrate CB1954, nucleotide NADH; for Km / kcat: variable substrate CB1954, fixed substrate NADH. As for the experimental part: (§1) Wild type NTR and selected mutants were purified as described by Lovering et al., 2001. Steady state kinetic studies were carried out by monitoring the disappearance of nitrofurazone ( ? =12,960, Zenno, et al., 1994) and nitrofurantoin ( ? =12,020, McOsker, et al., 1992) at 420 nm or the disappearance of reduced benzoquinone ( ? =18,5000), 2-nitrofuran ( ? =10,250, McOsker, et al., 1992), 2-nitrobenzamide ( ? =9,750, McOsker, et al., 1992) and 4 nitrobenzamide ( ? =9,720, McOsker, et al., 1992) at 300 nm. The formation of the 4 hydroxylamine product of CB1954 reduction was monitored at 420 nm ( ? =7900, Richard Knox, personal communication).
(§2) All reactions were performed in quartz cuvettes with either a 0.1-, 0.5-, or 1-cm pathlength. In all cases the reaction was initiated by the addition of a small amount of cold enzyme solution to the reaction mix. Assays were performed in 10 mM Tris HCL pH 7.0. The temperature of each reaction was maintained at 25° C. by means of a circulating water bath. All substrates examined were dissolved in DMSO, with the final concentration of organic solvent not exceeding 4% (v/v), concentrations>5% (v/v) give definable enzyme inhibition. In all assay the final DMSO concentration was at 4%. All steady state data were collected in an aerobic environment. Kinetic data were collected at concentration ranges extending from 0.1 of Km to the maximum possible concentration permitted by substrate solubility or optical absorbance. In all cases maximum substrate concentrations exceeded 5×Km. All data was analysed using the commercial package Sigma Plot™ and fit with non-linear regression to a rectangular hyperbola of the form: y=ax/b+x

Data set [4] can be described thus: Steady state kinetics of purified NTR, variable substrate NADH. Type of data set: biochemical. The settings on record: fixed substrate nitrofurazone; for Km: 10 mM Tris HCl pH 7.0, 25° C., 4% DMSO. The method, then:
as §1, §2

Data set [5] in a line: Steady state kinetics of purified NTR, variable substrate nitrofurazone. The following applies: fixed substrate NADH. It is filed as biochemical. The method, then:
as §1, §2

The conditions of data set [6]: nitrofurazone and nitrofurantoin as substrates; cited from earlier work.

B1: F124N (protein)
chain: MDIISVALKRHSTKAFDASKKLTPEQAEQIKTLLQYSPSSTNSQPWHFIVASTEEGKARVAKSAAGNYVFNERKMLDASHVVVFCAKTAMDDVWLKLVVDQEDADGRFATPEAKAANDKGRKFNADMHRKDLHDDAEWMAKQVYLNVGNFLLGVAALGLDAVPIEGFDAAILDAEFGLKEKGYTSLVVVPVGHHSVEDFNATLPKSRLPQNITLTEV
In the case of B1, in the data set with HeLa cells, the “sensitisation of HeLa cells to CB1954 killing compared with WT NTR” value is listed as “more extensive cell killing than that caused by expression of the WT enzyme”. For the same molecule, in data set [1], the “nitroreductase activity with CB1954 compared with wild-type” value (shortened to “nitroreductase activity with CB1954”) is “substantially greater activity with CB 1954 than the wild-type” and the Score is listed as 8-10. Besides, in data set [2], the IC50 is 21 µM.

B2: Y68G: NTR mutant, tyrosine 68 to glycine (protein)
chain: MDIISVALKRHSTKAFDASKKLTPEQAEQIKTLLQYSPSSTNSQPWHFIVASTEEGKARVAKSAAGNGVFNERKMLDASHVVVFCAKTAMDDVWLKLVVDQEDADGRFATPEAKAANDKGRKFFADMHRKDLHDDAEWMAKQVYLNVGNFLLGVAALGLDAVPIEGFDAAILDAEFGLKEKGYTSLVVVPVGHHSVEDFNATLPKSRLPQNITLTEV
With B2, the “kinetic parameters compared with wild type” value in data set [3] was “large improvement in catalytic activity vs. second substrate but not in kcat/Km”. Also, the Michaelis-Menten constant (Km) in data set [3] was 1840 ± 44 µM; in data set [4], 22 ± 1 µM; in data set [5], 699 ± 24 µM. The kcat was determined as 690 ± 54 min⁻¹ in data set [3], 3286 ± 33 min⁻¹ in data set [4] and 3541 ± 24 min⁻¹ in data set [5]. The Score in data set [1] was 7. In data set [2], this molecule showed an IC50 of 43 µM.

B3: F124H: NTR mutant, phenylalanine 124 to histidine (protein)
chain: MDIISVALKRHSTKAFDASKKLTPEQAEQIKTLLQYSPSSTNSQPWHFIVASTEEGKARVAKSAAGNYVFNERKMLDASHVVVFCAKTAMDDVWLKLVVDQEDADGRFATPEAKAANDKGRKFHADMHRKDLHDDAEWMAKQVYLNVGNFLLGVAALGLDAVPIEGFDAAILDAEFGLKEKGYTSLVVVPVGHHSVEDFNATLPKSRLPQNITLTEV
Take B3: in data set [3], the “kinetic parameters compared with wild type” value was “significant improvement in kcat/Km for both nucleotide and second substrate”; the Michaelis constant (Km) turned out to be 526 ± 10 µM; the kcat came out at 356 ± 35 min⁻¹. In addition, in data set [1], the “nitroreductase activity with CB1954” value is listed as “substantially greater activity with CB 1954 than the wild-type” and the Score is recorded as 7-9. The same molecule yielded an IC50 in data set [2] of 41 µM. Besides, in data set [4], the turnover number (kcat) came out at 619 ± 13 min⁻¹ and the Michaelis constant (Km) came out at 3 ± 0.4 µM. Also, in data set [6], the “nitroreductase activity compared with wild-type” value is “approximately double the wild-type activity”. Further, in data set [5], the Km came to 104 ± 10 µM and the kcat is 643 ± 16 min⁻¹.

B4: Wild type: wild-type E. coli nitroreductase (NTR) encoded by the NfsB gene, SEQ ID NO:1 (protein, listed as Escherichia coli)
chain: MDIISVALKRHSTKAFDASKKLTPEQAEQIKTLLQYSPSSTNSQPWHFIVASTEEGKARVAKSAAGNYVFNERKMLDASHVVVFCAKTAMDDVWLKLVVDQEDADGRFATPEAKAANDKGRKFFADMHRKDLHDDAEWMAKQVYLNVGNFLLGVAALGLDAVPIEGFDAAILDAEFGLKEKGYTSLVVVPVGHHSVEDFNATLPKSRLPQNITLTEV
Turning to B4, the Km turned out to be 852 ± 8 µM in data set [3], 7 ± 1 µM in data set [4] and 157 ± 4 µM in data set [5]. In addition, the values for the catalytic constant (kcat) in data set [3], in data set [4] and in data set [5] were 342 ± 25 min⁻¹, 657 ± 23 min⁻¹ and 683 ± 3 min⁻¹, respectively. Moreover, the Score in data set [1] is given as 4. Also, the 50% inhibitory concentration (IC50) in data set [2] came to 118 µM.

B5: F124K: NTR mutant, phenylalanine 124 to lysine (protein)
chain: MDIISVALKRHSTKAFDASKKLTPEQAEQIKTLLQYSPSSTNSQPWHFIVASTEEGKARVAKSAAGNYVFNERKMLDASHVVVFCAKTAMDDVWLKLVVDQEDADGRFATPEAKAANDKGRKFKADMHRKDLHDDAEWMAKQVYLNVGNFLLGVAALGLDAVPIEGFDAAILDAEFGLKEKGYTSLVVVPVGHHSVEDFNATLPKSRLPQNITLTEV
Regarding B5, in data set [3], the “kinetic parameters compared with wild type” value was “significant improvement in kcat/Km for both nucleotide and second substrate”; the Km stood at 371 ± 12 µM; the turnover number (kcat) turned out to be 343 ± 43 min⁻¹. Further, in data set [1], the “nitroreductase activity with CB1954” value is recorded as “substantially greater activity with CB 1954 than the wild-type” and the Score is reported as 8-10. For the same molecule, in data set [2], the IC50 came to 23 µM. Moreover, in data set [4], the kcat was 723 ± 9 min⁻¹ and the Michaelis constant (Km) is 1 ± 0.2 µM. Further, in data set [5], the Michaelis constant (Km) turned out to be 53 ± 5 µM and the kcat worked out at 758 ± 15 min⁻¹.

B6: N71S F124K: NTR double mutant, asparagine 71 to serine combined with phenylalanine 124 to lysine (protein)
chain: MDIISVALKRHSTKAFDASKKLTPEQAEQIKTLLQYSPSSTNSQPWHFIVASTEEGKARVAKSAAGNYVFSERKMLDASHVVVFCAKTAMDDVWLKLVVDQEDADGRFATPEAKAANDKGRKFKADMHRKDLHDDAEWMAKQVYLNVGNFLLGVAALGLDAVPIEGFDAAILDAEFGLKEKGYTSLVVVPVGHHSVEDFNATLPKSRLPQNITLTEV
Regarding B6, the “sensitisation of HeLa cells to CB1954 killing compared with WT NTR” value with HeLa cells is recorded as “more extensive cell killing than that caused by expression of the WT enzyme”. For the same molecule, in data set [1], the Score is given as 9. This molecule yielded an IC50 in data set [2] of 16 µM.
